Reference: US20240124536A1, “BASE EDITING OF TRANSTHYRETIN GENE” (Beam Therapeutics Inc., priority 2021, published 2024)
Strand notation (5' to 3'): a small letter for the sugar, then the base; units joined by * are phosphorothioate-linked, units joined directly phosphodiester-linked; [ ] holds rarer units or linkages, { } end groups; capitals alone tell only the bases. m = 2'-O-methyl; r = 2'-OH (RNA)

Legend:
[1] = system: cynomolgus monkey TTR gene; assay: Editing activity in cyno primary hepatocytes (gRNA + ABE8.8 mRNA transfection, NGS); assay type: cell-based; conditions: for Cyno hepatocytes - Editing %, 156.25: 156.25 ng/RNA/mL; for Cyno hepatocytes - Editing %, 312.5: 312.5 ng/RNA/mL; for Cyno hepatocytes - Editing %, 625: 625 ng/RNA/mL; for Cyno hepatocytes - Editing %, 1250: 1250 ng/RNA/mL; for Cyno hepatocytes - Editing %, 2500: 2500 ng/RNA/mL; for Cyno hepatocytes - Editing %, 5000: 5000 ng/RNA/mL; for editing activity in cynomolgus primary hepatocytes (in words): ABE8.8 mRNA co-transfection
From the text: (§1) The mRNA, and corresponding amino acid, sequence of the ABE8.8 (MA004) used in shown below in Table 11. Three days after transfection, genomic DNA was harvested from the hepatocytes, and assessed for base editing with next-generation sequencing of PCR amplicons generated around the target splice site. […] See FIGS. 5A-5C, FIG. 6, and Tables 2-3.

[2] = system: TTR on-target site; assay: Off-target validation in human primary hepatocytes: editing at the on-target site; assay type: cell-based; conditions: for on-target site editing efficiency (in words): treated vs control, human primary hepatocytes
Procedure: (§2) Several candidate off-target sites were analyzed for off-target editing in human primary hepatocytes.

[3] = system: human TTR gene; assay: Editing activity in human primary hepatocytes (gRNA + ABE8.8 mRNA co-transfection, NGS of PCR amplicons); assay type: cell-based; conditions: for Human hepatocytes - Editing %, 625, rep 1 / Human hepatocytes - Editing %, 625, rep 2: 625 ng/RNA/mL; for Human hepatocytes - Editing %, 1250, rep 1 / Human hepatocytes - Editing %, 1250, rep 2: 1250 ng/RNA/mL; for Human hepatocytes - Editing %, 2500, rep 1 / Human hepatocytes - Editing %, 2500, rep 2: 2500 ng/RNA/mL; for editing activity in human primary hepatocytes (in words): ABE8.8 mRNA co-transfection
From the text: With this example, gRNA sequences were identified that permit ABE8.8 (and other ABE variants containing Streptococcus pyogenes Cas9, such as ABE7.10, or another Cas protein that can use the NGG PAM) to either: 1) disrupt the start codon, or 2) disrupt splice sites, whether donors or acceptors, via A→G editing within its editing window (roughly positions 4 to 7 in the 20-nt protospacer region of DNA). Five sequences were identified throughout the human TTR gene (Table 1). gRNAs were synthesized matching each of the protospacer sequences and otherwise conforming to the standard 100-nt Streptococcus pyogenes CRISPR gRNA sequence, with each gRNA molecule having a minimal degree of chemical modifications (specified in Table 1).
as §1

[4] = system: potential off-target candidate sites
Procedure: With a view towards establishing the safety of a base-editing therapy knocking down of TTR in the human liver in vivo, off-target mutagenesis analysis is assessed in primary human hepatocytes. […] The in vitro biochemical assay ONE-seq was used to generate a list of candidate off-target sites and to determine the propensity of a ribonucleoprotein comprising the ABE8.8 base editor protein and each of the three protospacer guides sequences (GA457, GA460, and GA461) to cleave oligonucleotides in a library.
For human ONE-seq libraries, the reference human genome (GRCh38, Ensembl v98, chromosomes ftp://ftp.ensembl.org/pub/release-98/fasta/homo_sapiens/dna/Homo_sapiens.GRCh38.dna.chromosome.{1-22,X,Y,MT}.fa and ftp://ftp.ensembl.org/pub/release-98/fasta/homo_sapiens/dna/Homo_sapiens.GRCh38.dna.nonchromosomal.fa), was searched for potential off-target sites with up to 6 mismatches to the protospacer sequence above, and sites with up to 4 mismatches plus up to 2 DNA or RNA bulges, using Cas-Designer v1.2 (http://www.rgenome.net/cas-designer/).
For each site, the total number of edited reads was normalized to the total number of edited reads assigned to the on-target site, and this ratio defines the ONE-seq score for the site. Sites were ranked by ONE-seq score, and those with a score equal to or larger than 0.001, were selected for validation. A score equal to or larger than 0.001 encompasses sites that have down to 1000-fold less editing activity in the biochemical assay compared to editing of the on-target site. This threshold is based on the premise that in cells, if there is 10000 on-target editing, 1/1000-fold less editing activity would translate to % 0.1% off-target editing, which falls below the lower limit of detection of editing by NGS.
as §2

Row | Molecule | Cyno hepatocytes - Editing %, 156.25 [1] | Cyno hepatocytes - Editing %, 312.5 [1] | Cyno hepatocytes - Editing %, 625 [1] | Cyno hepatocytes - Editing %, 1250 [1] | Cyno hepatocytes - Editing %, 2500 [1] | Cyno hepatocytes - Editing %, 5000 [1] | editing activity in cynomolgus primary hepatocytes (in words) [1] | on-target site editing efficiency (in words) [2] | Human hepatocytes - Editing %, 625, rep 1 [3] | Human hepatocytes - Editing %, 625, rep 2 [3] | Human hepatocytes - Editing %, 1250, rep 1 [3] | Human hepatocytes - Editing %, 1250, rep 2 [3] | Human hepatocytes - Editing %, 2500, rep 1 [3] | Human hepatocytes - Editing %, 2500, rep 2 [3] | editing activity in human primary hepatocytes (in words) [3] | off-target editing at candidate off-target sites (in words) [4] | other results
1 | GA458: Cyno TTR guide RNA, cynomolgus equivalent of GA457, spacer GCCAUCCUGCCAAGAACGAG, gRNA SEQ ID NO: 29 (nucleic acid) guide: mG*mC*mC*rArUrCrCrUrGrCrCrArArGrArArCrGrArGrGrUrUrUrUrArGrArGrCrUrArGrArArArUrArGrCrArArGrUrUrArArArArUrArArGrGrCrUrArGrUrCrCrGrUrUrArUrCrArArCrUrUrGrArArArArArGrUrGrGrCrArCrCrGrArGrUrCrGrGrUrGrCrU*mU*mU*mU | 6.06% | 10.65% | 16.07% | 22.74% | 27.25% | 35.91% | high editing activity | – | – | – | – | – | – | – | – | – | –
2 | GA457: Human TTR guide RNA, spacer GCCAUCCUGCCAAGAAUGAG, gRNA SEQ ID NO: 11 (nucleic acid, chemistry not given here) guide: GCCATCCTGCCAAGAATGAGGTTTTAGAGCTAGAAATAGCAAGTTAAAATAAGGCTAGTCCGTTATCAACTTGAAAAAGTGGCACCGAGTCGGTGCTTTT | – | – | – | – | – | – | – | high editing efficiency | 17.24% | 15.39% | 26.49% | 24.86% | 33.96% | 31.31% | high editing activity | little to no editing | % Editing - human primary hepatocytes, Net ([2]; On-target GCCATCCTGCCAAGAATGAG): 54.1%; % Editing - human primary hepatocytes, Treated ([2]; On-target GCCATCCTGCCAAGAATGAG): 54.21%; net editing at all off-target sites ([4]; 47 candidate off-target sites, human primary hepatocytes): less than 0.40
3 | GA459: Human TTR guide RNA, spacer GCAACUUACCCAGAGGCAAA, gRNA SEQ ID NO: 13 (nucleic acid, chemistry not given here) guide: GCAACTTACCCAGAGGCAAAGTTTTAGAGCTAGAAATAGCAAGTTAAAATAAGGCTAGTCCGTTATCAACTTGAAAAAGTGGCACCGAGTCGGTGCTTTT | – | – | – | – | – | – | – | high editing efficiency | 3.79% | 3.89% | 5.46% | 6.15% | 8.5% | 8.69% | – | little to no off-target editing | SUM Editing % - Human Primary Hepatocytes, Treat rep 1 ([2]; On-target GCAACTTACCCAGAGGCAAA): 14.17%; SUM Editing % - Human Primary Hepatocytes, Treat rep 2 ([2]; On-target GCAACTTACCCAGAGGCAAA): 14.29%
4 | GA460: Human/Cyno TTR guide RNA, spacer UAUAGGAAAACCAGUGAGUC, gRNA SEQ ID NO: 14 (nucleic acid, chemistry not given here) guide: TATAGGAAAACCAGTGAGTCGTTTTAGAGCTAGAAATAGCAAGTTAAAATAAGGCTAGTCCGTTATCAACTTGAAAAAGTGGCACCGAGTCGGTGCTTTT | 1.62% | 11.22% | 18.44% | 31.71% | 38.25% | 40.16% | high editing activity | high editing efficiency | 23.77% | 22.27% | 38.33% | 35.8% | 47.61% | 47.79% | high editing activity | little to no off-target editing | SUM Editing % - Human Primary Hepatocytes, Treat rep 1 ([2]; On-target TATAGGAAAACCAGTGAGTC): 76.4%; SUM Editing % - Human Primary Hepatocytes, Treat rep 2 ([2]; On-target TATAGGAAAACCAGTGAGTC): 74.3%
5 | GA461: Human/Cyno TTR guide RNA, spacer UACUCACCUCUGCAUGCUCA, gRNA SEQ ID NO: 15 (nucleic acid, chemistry not given here) guide: TACTCACCTCTGCATGCTCAGTTTTAGAGCTAGAAATAGCAAGTTAAAATAAGGCTAGTCCGTTATCAACTTGAAAAAGTGGCACCGAGTCGGTGCTTTT | 0.07% | 7.45% | 13.16% | 19.46% | 29.8% | 37.53% | high editing activity | high editing efficiency | 21.81% | 22.31% | 32.82% | 32.38% | 40.42% | 39.43% | high editing activity | little to no off-target editing | SUM Editing % - Human Primary Hepatocytes, Treat rep 2 ([2]; On-target TACTCACCTCTGCATGCTCA): 58.9%
